Test results reported in patent US20090215693A1, “METHODS FOR INCREASING HYALURONIC ACID LEVELS AND IMPROVING MOISTURE RETENTION IN TISSUE” (priority 2008, published 2009).

Tested on: Fibroblasts
Assay: Hyaluronic acid production by cultured fibroblasts (ELISA of culture medium)
Format: cell-based
Conditions: fibroblast culture; even at the lowest concentrations tested
Description: Fibroblasts were seeded into individual wells of a 12-well plate in 1.0 ml of Fibroblast Growth Media (FGM) and incubated overnight at 37±2° C. and 5±1% CO2. On the following day the media was removed via aspiration to eliminate non-adherent cells and replaced with 1.0 ml of fresh FGM. Cells were grown until confluent, with a media change every 48 to 72 hours. Upon reaching confluency the cells were treated for 24 hours with DMEM supplemented with 1.5% FBS to eliminate growth factors from the normal culture media. After this 24-hour wash-out period the cells were treated with the indicated test materials (i.e., milk-derived products containing lactoferrin) at the specified concentrations dissolved in FGM with 1.5% FBS. Dibutyrl cAMP (DBcAMP) at 0.1 mM was used as a positive control. Untreated cells (negative control) received FGM with 1.5% FBS. The cells were incubated for 48 hours and at the end of the incubation period cell culture medium was collected and either stored frozen (−75° C.) or assayed immediately. All testing was done in triplicate.
A series of hyaluronic acid standards from 50 ng/ml to 3,200 ng/ml was prepared. […] After incubation, 50 μl of stop solution was added to each well and the absorbance was measured at 405 nm using a plate reader. Hyaluronic acid production was expressed as ng/ml and results are shown in Table 1 and the graph of FIG. 1.

B1: bovine milk-derived lactoferrin: multi-functional protein found in mammalian milk, primarily in the whey fraction (protein, UniProt P24627 20-708, looked up)
Lactotransferrin: APRKNVRWCTISQPEWFKCRRWQWRMKKLGAPSITCVRRAFALECIRAIAEKKADAVTLDGGMVFEAGRDPYKLRPVAAEIYGTKESPQTHYYAVAVVKKGSNFQLDQLQGRKSCHTGLGRSAGWIIPMGILRPYLSWTESLEPLQGAVAKFFSASCVPCIDRQAYPNLCQLCKGEGENQCACSSREPYFGYSGAFKCLQDGAGDVAFVKETTVFENLPEKADRDQYELLCLNNSRAPVDAFKECHLAQVPSHAVVARSVDGKEDLIWKLLSKAQEKFGKNKSRSFQLFGSPPGQRDLLFKDSALGFLRIPSKVDSALYLGSRYLTTLKNLRETAEEVKARYTRVVWCAVGPEEQKKCQQWSQQSGQNVTCATASTTDDCIVLVLKGEADALNLDGGYIYTAGKCGLVPVLAENRKSSKHSSLDCVLRPTEGYLAVAVVKKANEGLTWNSLKDKKSCHTAVDRTAGWNIPMGLIVNQTGSCAFDEFFSQSCAPGADPKSRLCALCAGDDQGLDKCVPNSKEKYYGYTGAFRCLAEDVGDVAFVKNDTVWENTNGESTADWAKNLNREDFRLLCLDGTRKPVTEAQSCHLAVAPNHAVVSRSDRAAHVKQVLLHQQALFGKNGKNCPDKFCLFKSETKNLLFNDNTECLAKLGGRPTYEEYLGTEYVTAIANLKKCSTSPLLEACAFLTR
Q: How did the “hyaluronic acid levels compared with untreated fibroblasts” value turn out when B1 was run?
A: detectable and significant increase
